From paper PMC9535766, “Structural insights into the assembly and activation of the IL‐27 signaling complex” (EMBO Reports, 2022)

T1: mouse p28 (IL‐27p28), alone (mouse, UniProt Q8K3I6 29-234)
T1 construct: IL-27 p28 subunit, mouse; source: recombinantly produced
T1 sequence (looked up): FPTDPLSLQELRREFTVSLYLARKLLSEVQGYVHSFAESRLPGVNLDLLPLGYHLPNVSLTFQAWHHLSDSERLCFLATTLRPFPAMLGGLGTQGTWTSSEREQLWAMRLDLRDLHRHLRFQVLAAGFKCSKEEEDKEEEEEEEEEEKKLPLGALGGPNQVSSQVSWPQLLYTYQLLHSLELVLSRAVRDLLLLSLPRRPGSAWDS

T2: C‐terminal biotinylated mouse GP130 with biotin acceptor peptide (mouse, UniProt Q00560 23-319, biotin on the biotin acceptor peptide (BirA ligase))
T2 construct: GP130, murine, amino acids 23–319; also called biotinylated GP130; source: insect cells (pAcGP67‐A vector), purified; biotinylated with BirA ligase
T2 sequence (looked up): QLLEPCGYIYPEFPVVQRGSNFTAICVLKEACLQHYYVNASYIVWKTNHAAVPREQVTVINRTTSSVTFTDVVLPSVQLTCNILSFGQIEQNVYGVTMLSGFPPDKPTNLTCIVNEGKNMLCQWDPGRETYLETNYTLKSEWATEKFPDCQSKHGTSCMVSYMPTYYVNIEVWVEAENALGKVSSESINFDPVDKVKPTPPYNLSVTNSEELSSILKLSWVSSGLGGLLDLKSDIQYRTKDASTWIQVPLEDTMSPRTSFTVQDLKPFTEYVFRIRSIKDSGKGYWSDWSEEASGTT

T3: C‐terminal biotinylated mouse GP130 with biotin acceptor peptide (mouse, UniProt Q00560 23-319, biotin on the biotin acceptor peptide (BirA ligase))
T3 chain: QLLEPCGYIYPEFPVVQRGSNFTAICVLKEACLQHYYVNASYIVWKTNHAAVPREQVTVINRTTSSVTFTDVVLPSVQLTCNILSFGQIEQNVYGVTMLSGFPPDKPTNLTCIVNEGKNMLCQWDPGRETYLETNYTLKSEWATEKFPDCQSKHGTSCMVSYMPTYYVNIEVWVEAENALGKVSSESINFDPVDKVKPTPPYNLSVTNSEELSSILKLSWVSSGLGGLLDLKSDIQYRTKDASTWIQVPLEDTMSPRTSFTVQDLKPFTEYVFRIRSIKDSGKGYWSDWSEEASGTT

T4: biotinylated mouse IL‐27Rα (amino acids 28–224) (mouse, UniProt O70394 28-224, N‐terminal biotinylated in vitro using EZ‐Link Sulfo‐NHS‐SS‐Biotin at pH 6.5)
T4 chain: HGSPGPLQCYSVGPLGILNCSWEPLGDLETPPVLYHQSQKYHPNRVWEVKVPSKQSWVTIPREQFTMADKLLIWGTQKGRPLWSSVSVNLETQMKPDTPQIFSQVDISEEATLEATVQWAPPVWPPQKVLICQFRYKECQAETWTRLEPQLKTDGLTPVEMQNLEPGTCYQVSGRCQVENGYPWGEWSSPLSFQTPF

B1: biotinylated mouse IL‐27Rα (amino acids 28–224) (receptor, UniProt O70394 28-224, looked up)
chain: HGSPGPLQCYSVGPLGILNCSWEPLGDLETPPVLYHQSQKYHPNRVWEVKVPSKQSWVTIPREQFTMADKLLIWGTQKGRPLWSSVSVNLETQMKPDTPQIFSQVDISEEATLEATVQWAPPVWPPQKVLICQFRYKECQAETWTRLEPQLKTDGLTPVEMQNLEPGTCYQVSGRCQVENGYPWGEWSSPLSFQTPF
modifications: N‐terminal biotinylated in vitro using EZ‐Link Sulfo‐NHS‐SS‐Biotin at pH 6.5
notes: IL-27 receptor alpha, murine, amino acids 28–224; Same construct as m2, chemically biotinylated for capture on the streptavidin chip; also called biotinylated IL‐27Rα; source: Trichoplusia ni (High Five) cells, baculovirus, secreted; purified (Ni-NTA, SEC); biotinylated in vitro

Experiments:
[1] = target: T1, mouse p28 (IL‐27p28), alone; test: SPR; Biacore T100; biotinylated receptor immobilised on SA chip (~100 RU); p28 flowed, 1:2 dilution series from 20 μM; 25°C; 10 mM HEPES, 150 mM NaCl, 0.05% TWEEN‐20, pH 7.2, 0.5% BSA; equilibrium analysis; conditions: both partners purified
[2] = target: B1; test: SPR; Biacore T100; biotinylated receptor immobilised on SA chip (~100 RU); IL‐27 flowed, 1:3 dilution series from 100 nM, 30 μl/min; 25°C; 10 mM HEPES, 150 mM NaCl, 0.05% TWEEN‐20, pH 7.2, 0.5% BSA; kinetic 1:1 fit; conditions: both partners purified
[3] = target: T2, C‐terminal biotinylated mouse GP130 …; test: as above; conditions: both partners purified
[4] = target: T3, C‐terminal biotinylated mouse GP130 …; test: SPR
[5] = target: T4, biotinylated mouse IL‐27Rα (amino acids …); test: SPR

Row | Binder | Kd [1] | Kd [2] | Kd [3] | koff [4] | koff [5]
1 | B1 | 1700 nM |  |  |  | 
2 | murine IL‐27, linker‐connected single‐chain variant (p28 + EBI3) (ligand) GSYTETALVALSQPRVQCHASRYPVAVDCSWTPLQAPNSTRSTSFIATYRLGVATQQQSQPCLQRSPQASRCTIPDVHLFSTVPYMLNVTAVHPGGASSSLLAFVAERIIKPDPPEGVRLRTAGQRLQVLWHPPASWPFPDIFSLKYRLRYRRRGASHFRQVGPIEATTFTLRNSKPHAKYCIQVSAQDLTDYGKPSDWSLPGQVESAPHKPRGGGGSGGGGSVESGENLYFQGFPTDPLSLQELRREFTVSLYLARKLLSEVQGYVHSFAESRLPGVNLDLLPLGYHLPNVSLTFQAWHHLSDSERLCFLATTLRPFPAMLGGLGTQGTWTSSEREQLWAMRLDLRDLHRHLRFQVLAAGFKCSKEEEDKEEEEEEEEEEKKLPLGALGGPNQVSSQVSWPQLLYTYQLLHSLELVLSRAVRDLLLLSLPRRPGSAWDS |  | 0.28 nM | 2.1 nM | 0.02 s⁻¹ | 0.001 s⁻¹
